Results published in patent publication US20090233850A1.

Tests used:
[1] = molecular target: gp120 on HIV-1 BaL (R5) virus (HIV-1 BaL); assay: cell-based or functional assay
[2] = molecular target: recombinant monomeric HIV-1 YU2 gp120, produced in Drosophila S2 cells (HIV-1 YU2) (UniProt P35961); assay: ELISA, 100 ng YU2 gp120 adsorbed on the plate, serial dilutions of CVN, detection with polyclonal anti-CVN, BSA background subtracted
[3] = molecular target: recombinant monomeric HIV-1 YU2 gp120, produced in Drosophila S2 cells (HIV-1 YU2) (UniProt P35961); assay: competition ELISA on plate-adsorbed YU2 gp120; competitor mAb 2G12 at 50 ug/ml; percent of control without CVN
[4] = molecular target: recombinant monomeric HIV-1 YU2 gp120, produced in Drosophila S2 cells (HIV-1 YU2) (UniProt P35961); assay: SPR, Biacore 3000, from the response at 300 nM against the 33 RU expected for 1:1
[5] = molecular target: recombinant monomeric HIV-1 YU2 gp120, produced in Drosophila S2 cells (HIV-1 YU2) (UniProt P35961); assay: SPR, Biacore 3000, about 250 RU YU2 gp120 amine-coupled to CM5 chip, CVN in flow, 2B6R reference cell

| Substance | boost of efficacy (% inhibition of HIV-1 BaL) of the mixture against CVN alone at the two lowest concentrations, 12p1 at 16-31 uM [1] [fold] | synergy index of the combination of CVN and 12p1, inhibition of HIV-1 BaL replication in PM-1 cells (gp120 ELISA after 7 days) [1] | EC50 (read off the curve) [2] [nM] | IC50 (read off the curve) [3] [nM] | binding stoichiometry (CVN:gp120) [4] | SPR response at 300 nM [5] [RU] |
| --- | --- | --- | --- | --- | --- | --- |
| unlinked CVN and 12p1 (non-covalent mixture) (from UniProt P81180 1-101) | 2 | 0.3 to 0.5 | – | – | – | – |
| cyanovirin-N (CVN), recombinant, periplasmic expression in E. coli, hexa-histidine tagged (from UniProt P81180 1-101) | – | – | 10 | 30 | 3 | 95 |
